From article PMC8053085, “Di-phosphorylated BAF shows altered structural dynamics and binding to DNA, but interacts with its nuclear envelope partners” (Nucleic Acids Research, 2021)
Values joined by “and” are separate entries in the source; they are usually repeats but may differ in a detail not shown here. Equal entries are not always repeated.

B2: Barrier-to-autointegration factor (BAF construct with the four cysteines replaced by alanines) (natural protein, human, UniProt O75531 1-89, looked up)
chain: GTTSQKHRDFVAEPMGEKPVGSLAGIGEVLGKKLEERGFDKAYVVLGQFLVLKKDEDLFREWLKDTAGANAKQSRDAFGALREWADAFL
notes: human barrier-to-autointegration factor (BANF1), an 89-aa protein; residue 1 is a glycine left by the TEV site instead of the native methionine; all four cysteines mutated into alanine; also called BAF WT; non-phosphorylated BAF; not shown: His tag, N-terminal, cleaved
B3: Di-phosphorylated BAF (BAF phosphorylated by VRK1 on Thr3 and Ser4) (natural protein, human, UniProt O75531 1-89, looked up)
chain: GTTSQKHRDFVAEPMGEKPVGSLAGIGEVLGKKLEERGFDKAYVVLGQFLVLKKDEDLFREWLKDTAGANAKQSRDAFGALREWADAFL
modifications: phosphothreonine at 3, phosphoserine at 4
notes: human barrier-to-autointegration factor (BANF1), an 89-aa protein; residue 1 is a glycine left by the TEV site instead of the native methionine; all four cysteines mutated into alanine; phosphorylated on Thr3 and Ser4; Same construct as m1, then phosphorylated; also called pBAF; not shown: His tag, N-terminal, cleaved

Assays:
[1] = tested on: BAF WT (Cys-less construct) (human); assay: ITC; conditions: ITC: 50 mM Tris-HCl pH 8.0, 150 mM NaCl, 15 C, 20 uM BAF in cell, DNA 200 uM (7/21 nt) or 100 uM (48 nt) in syringe; fluorescence assay buffer not given in the …
BAF A12T (human) [2] = assay: ITC; conditions: ITC: 50 mM Tris-HCl pH 8.0, 150 mM NaCl, 15 C, 20 uM BAF in cell, DNA 200 uM (7/21 nt) or 100 uM (48 nt) in syringe; fluorescence assay buffer not given in the …
[3] = tested on: BAF WT (Cys-less construct) (human); assay: fluorescence, dye-labelled coated dsDNA; conditions: mean of 5; ITC: 50 mM Tris-HCl pH 8.0, 150 mM NaCl, 15 C, 20 uM BAF in cell, DNA 200 uM (7/21 nt) or 100 uM (48 nt) in syringe; fluorescence assay buffer not given in the …
BAF S4E (human) = assay: fluorescence, dye-labelled coated dsDNA; conditions: mean of 2; ITC: 50 mM Tris-HCl pH 8.0, 150 mM NaCl, 15 C, 20 uM BAF in cell, DNA 200 uM (7/21 nt) or 100 uM (48 nt) in syringe; fluorescence assay buffer not given in the …
[4] = tested on: pBAF (pThr3, pSer4) (human); assay: fluorescence, dye-labelled coated dsDNA; conditions: mean of 2; ITC: 50 mM Tris-HCl pH 8.0, 150 mM NaCl, 15 C, 20 uM BAF in cell, DNA 200 uM (7/21 nt) or 100 uM (48 nt) in syringe; fluorescence assay buffer not given in the …
BAF A12T (human) [5] = assay: fluorescence, dye-labelled coated dsDNA; conditions: mean of 4; ITC: 50 mM Tris-HCl pH 8.0, 150 mM NaCl, 15 C, 20 uM BAF in cell, DNA 200 uM (7/21 nt) or 100 uM (48 nt) in syringe; fluorescence assay buffer not given in the …
[6] = target: T1, Di-phosphorylated BAF (BAF phosphorylated by VRK1 on Thr3 and Ser4) (human, UniProt O75531 1-89, glycine as residue 1 instead of the native methionine | C67 mutated into …, phosphothreonine at 3, phosphoserine at 4); assay: ITC; phosphorylated BAF (pThr3, pSer4)
T1 sequence: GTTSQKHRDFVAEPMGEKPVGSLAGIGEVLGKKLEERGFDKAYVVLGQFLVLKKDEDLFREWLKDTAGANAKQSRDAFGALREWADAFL

[7] = target: B3; assay: ITC; VP-ITC, 15°C; BAF or pBAF dimers at 20 μM in the cell titrated with LamIgF at 100 μM or LEM at 150 μM in the syringe; 50 mM HEPES pH 7.4, 150 mM NaCl; in duplicate; conditions: both partners purified
[8] = target: B2; assay: as above; conditions: both partners purified
[9] = target: T2, Barrier-to-autointegration factor (BAF construct with the four cysteines replaced by alanines) (human, UniProt O75531 1-89, glycine as residue 1 instead of the native methionine | C67 mutated into …); assay: ITC
T2 sequence: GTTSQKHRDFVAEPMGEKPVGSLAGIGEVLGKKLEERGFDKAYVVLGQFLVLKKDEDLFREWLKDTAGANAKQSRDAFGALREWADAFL

[10] = target: T3, IgFold domain of human lamin A/C from amino acid 411 to amino acid 566 (human, UniProt P02545 411-566); assay: ITC; VP-ITC, 15°C; BAF or pBAF dimers at 20 μM in the cell titrated with LamIgF at 100 μM or LEM at 150 μM in the syringe; 50 mM HEPES pH 7.4, 150 mM NaCl; in duplicate; conditions: both partners purified
T3 construct: human lamin A/C, residues 411-566 including the IgFold domain; Cloned into a pGEX vector; also called LamIgF; lamin A/C Igfold domain; source: E. coli BL21 DE3 Star, purified (glutathione beads, thrombin cleavage, gel filtration); 15N labelled for NMR
T3 sequence (looked up): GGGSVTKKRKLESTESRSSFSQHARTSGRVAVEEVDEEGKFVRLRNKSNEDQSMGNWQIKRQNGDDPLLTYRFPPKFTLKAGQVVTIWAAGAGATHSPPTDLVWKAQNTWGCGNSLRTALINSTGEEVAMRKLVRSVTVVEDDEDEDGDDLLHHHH

**Q.** What does the source list for 7 nt dsDNA?
**A.** Kd [1]: 1000 nM and 2100 nM; Kd (BAF A12T (human) [2]): 1700 nM and 920 nM

**Q.** For 21 nt dsDNA, which Kd [1] is on record?
**A.** 170 nM and 110 nM

**Q.** And the Kd (BAF A12T (human) [2])?
**A.** 300 nM and 210 nM

**Q.** What does the source list for 48 nt dsDNA (ITC)?
**A.** Kd [1]: 41.1 nM; Kd (BAF A12T (human) [2]): 28.8 nM

**Q.** What does the source list for 48 nt dsDNA, coated?
**A.** Kd [3]: 2.54 nM; Kd (BAF S4E (human)): 15000 nM; Kd [4]: 10700 nM; Kd (BAF A12T (human) [5]): 2.5 nM

B1: LEM domain of human emerin from amino acid 1 to amino acid 46 (domain or fragment, UniProt P50402 1-46, looked up)
chain: MDNYADLSDTELTTLLRRYNIPHGPVVGSTRRLYEKKIFEYETQRR
notes: human emerin, residues 1-46 (LEM domain); also called emerin LEM domain; LEM fragment
**Q.** For B1, which Kd [6] is on record?
**A.** 700 nM

**Q.** What about the Kd [7] of the same molecule?
**A.** ~1000 nM

**Q.** And the Kd [8]?
**A.** ~1000 nM

**Q.** What about the Kd [9] of the same molecule?
**A.** 1100 nM

**Q.** For B2, which Kd [10] is on record?
**A.** 4500 ± 500 nM

**Q.** With B3 as the molecule, how does the Kd [10] read?
**A.** 4900 ± 800 nM
